Results from US20250381223A1 (UTC THERAPEUTICS SHANGHAI, published 2025).

T1: CD123-Fc recombinant protein (human, UniProt P26951 19-305)
T1 construct: construct not described; not shown: Fc part
T1 sequence (looked up): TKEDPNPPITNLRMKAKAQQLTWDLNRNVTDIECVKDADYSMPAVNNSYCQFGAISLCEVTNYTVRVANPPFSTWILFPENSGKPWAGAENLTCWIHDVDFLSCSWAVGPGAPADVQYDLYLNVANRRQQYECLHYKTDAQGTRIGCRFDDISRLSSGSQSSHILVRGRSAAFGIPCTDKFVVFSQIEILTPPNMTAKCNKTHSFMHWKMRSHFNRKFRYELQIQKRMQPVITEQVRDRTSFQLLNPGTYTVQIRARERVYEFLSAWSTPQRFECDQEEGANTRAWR

B1: huVH5huVL3 (antibody, human IgG1, kappa, V domains shown)
VH: QVQLQESGPGLVKPSETLSLTCTVSGFSISDYGVHWIRQPPGKGLEWIGVIWAGGGTNYNPSLKSRVTISVDTSKNQVSLKLSSVTAADTAVYYCARDKGYSYYYSMDYWGQGTTVTVSS
VL: DIQLTQSPSSLSASVGDRVTITCRASESVEYYVTSLMQWYQQKPGKAPKLLIFAASNVESGVPSRFSGSGSGTDFTLTISSLQPEDFATYYCQQSRKVPYTFGGGTKLEIKR
B2: anti-CD123 scFv-C1 (scFv)
scFv: QSALTQPASVSGSPGQSITISCTGTSSDIGAYNYVSWYQQHPGKAPKLIIYDVSHRPSGVSNRFSGSKSGNTASLTISGLQSEDEADYYCSSDTNNNTLVFGVGTKLTVLGGGGSGGGGSGGGGSEVHLVESGGGVVQPGRSLRLSCAASGFTFSSYGMHWVRQAPGKGLEWVAVIWYDGSNKYYADSVKGRFTISRDNSKNTLYLQMNSLRAEDTAVYYCARDRDGFFLPMYYFDYWGQGTLVTVSS
notes: On mRNA-electroporated T cells as CAR (hinge to CD3-zeta)
B3: anti-CD123 scFv-C13 (scFv)
scFv: DVVMTQTPLSLPVTLGQPASISCRSSQGLVFSDGVTYLNWFQQRPGQSPRRLIYKVSNRDSGVPDRFSGSGSGTDFTLKISRVEAEDVGIYYCMQGTHWPHTFGQGTKLEIKGGGGSGGGGSGGGGSEVQLVESGGGLVKPGGSLRLSCAASGFTFSSYSMNWVRQAPGKGLEWVAFISHDASKKFYADSVKGRFTLSRDNSKNTLYLEMNSLGAEDTALYYCGRDRNWGFSDFWGQGTLVTVSS
notes: On mRNA-electroporated T cells as CAR
B4: anti-CD123 scFv-C3 (scFv)
scFv: AIQMTQSPSSLSASVGDRVTITCRASQGIGTYLAWFQQKPGKAPKSLIYAASNLQSGVPSKFSGSGSGTDFTLTISNLQPEDFATYYCQQYKGYPLTFGGGTKLEIKGGGGSGGGGSGGGGSQVQLVQSGAEVKKPGSSVKVSCKASGGTFSSYAISWVRQAPGQGLEWMGGIIPIFGTANYAQKFQGRVTITADESTSTAYMELSSLRSEDTAVYYCARDSGWFGPRYYFDYWGQGTLVTVSS
notes: as for B3
B5: anti-CD123 scFv-C15 (scFv)
scFv: DIQLTQSPSTLSASVGDRVTISCRASQSISSWLAWYQHKPGKAPKLLIYKTSALEDGVPSRFSGSGSGTEFTLTISSLQPDDFATYFCLHYGSYTFGQGTKVDIKGGGGSGGGGSGGGGSEVQLVESGGGLVNPGGSLRLSCEASGFTFSDYYISWIRQAPGKGLEWISYISGSSTYTDFADSVKGRFTISRDNAKNTVFLQMNSLRAEDTAVYYCARDRRGRFDPWGQGTLVTVSS
notes: as for B3
B6: anti-CD123 scFv-C10 (scFv)
scFv: SYELTQPPSVSVAPGKTARITCGGNNIGSKSVHWYQQKPGQAPVLVVYDDSDRPSGIPERFSGSNSGNTATLTISRVEAGDEADYYCQVWDSSSDHWVFGGGTKLTVLGGGGSGGGGSGGGGSQVQLVQSGAEVKKPGSSVKVSCKASGGTFSSYAISWVRQAPGQGLEWMGGIIPIFGTANYAQKFQGRVTITADESTSTAYMELSSLRSEDTAVYYCAREKWGYYGDYYYGMDVWGQGTTVTVSS
notes: as for B3
B7: anti-CD123 scFv-C9 (scFv)
scFv: QSVLTQPPSASGTPGQRVTISCSGSNSNIENNYVYWYQHLPGTAPKRLIYQNNQRPSGVPDRFSGSKSGTSASLAISGLRSEDEADYYCSAWDDSLSAWVFGGGTELTVLGGGGSGGGGSGGGGSEVHLVESGGGLVQPGRSLRLSCTASGFTFGDYAMNWVRQAPGKGLEWVGFIRSKASGGTTDYAASVKGRFTISRDDSKSIAYLQMNSLKTEDTAVYYCTRALRGYSYGLFDYWGQGTLVTVSS
notes: as for B3
B8: anti-CD123 scFv-C17 (scFv)
scFv: QSALTQPASVSGSLGQSITISCTGTSSDVGTYDYVSWYQQHPGKAPKLMIYDVTYRPSGVSHRFSGSKSGNTASLTISGLQADDEADYYCQQYNNWPPRYTFGQGTKVEIKGGGGSGGGGSGGGGSQVQLVQSGAEVEKPGASVKLSCTASGYNFNSYYMHWVRLTPGQGLEWMGLINPTNGRTTYAQKFQGRVTMTGDTSTRTVYLALSSLRSEDSALYYCARGSPPHIFDPDFDYWGQGTLVTVSS
notes: as for B3
B9: anti-CD123 scFv-C2 (scFv)
scFv: QSVVTQPPSVSAAPGQKVTISCSGSSSNIGNNYVSWYQQFPGTAPKLLIYDNNKRPSGIPDRFSGSKSGTSGTLGITGLQTGDEADYYCVTWDTSLSAGVFGGGTKLTVLGGGGSGGGGSGGGGSQITLKESGGGLVKPGGSLRLSCAASGFTFSNAWMSWVRQAPGKGLEWVGRIKSKTDGGTTDYAAPVKGRFTISRDDSKNTLYLQMNSLKTEDTAVYYCTTDPHGYYYGMDVWGQGTTVTVSS
notes: as for B3
B10: anti-CD123 scFv-C5 (scFv)
scFv: NFMLTQPHSVSESPGKTVTLSCTRSSGSIAGSYVQWYQQRPGSSPTTVIFQDNQRPSGVPDRFSGSIDKSSNSASLTISGLKTEDEADYYCQSYDSNNQVFGGGTKLTVLGGGGSGGGGSGGGGSEVHLVESGGGVVRPGGSLRLSCAASGFTFGDYGMSWVRQAPGKGLEWVSGINWNGGRTGYADSVKGRFTISRDNAKNSLYLQMNSLRAEDTALYYCARARGSGSYFGYMDVWGKGTTVTVSS
notes: On mRNA-electroporated T cells as CAR; also called anti-CD123-C5
B11: anti-CD123 scFv-C6 (scFv)
scFv: SYELTQPPSVSVSPGQTARIPCSGADLGDQYVSWYQHQPGQSPLLVIYEDDKRPSGIPERFSGSNSGNTATLTISGTQAMDEADYYCQAWDGNAAIFGGGTKLTVLGGGGSGGGGSGGGGSQVQLVQSGGGSVQPGGSLRLSCAASGFTFTRYSMNWVRQAPGKGLEWVSYISSSSSTIYYADSVKGRFTISRDNAKNSLYLQMNSLRDEDTAVYYCARDGYGGNSDYYGMDVWGQGTTVTVSS
notes: as for B3
B12: anti-CD123 scFv-C18 (scFv)
scFv: QSALTQPASVSGSPGQSITISCTGTSSDVGGYNYVSWYQQHPGKAPKLMIYDVSNRPSGVSNRFSGSKSGNTASLTISGLQAEDEADYYCSSYTSSSTLFVFGTGTELTVLGGGGSGGGGSGGGGSQVQLQESGPGLVKPSQTLSLTCTVSGGSISSGDYYWSWIRQSPGKGLEWIGYIHSTGTTYYNPSLKSRLTISLDTSKNQFSLKLNSVTAADTAVYYCARGGVGTIFNYWGQGTLVTVSS
notes: as for B3
B13: anti-CD123 scFv-C11 (scFv)
scFv: QSVVTQPPSASGTPGQRVTISCSGSSSNIGSNYVYWYQQLPGTAPKLLIYRNNQRPSGVPDRFSGSKSGTSASLAISGLRSEDEADYYCAAWDDSLSGYVFGTGTKLTVLGGGGSGGGGSGGGGSEVQLVESGGGLVQPGRSLRLSCTASGFTFGDYAMSWVRQAPGKGLEWVGFIRSKAYGGTTEYAASVKGRFTISRDDSKSIAYLQMNSLKTEDTAVYYCTRDIGYYGSGSYSPFDYWGQGTLVTVSS
notes: On mRNA-electroporated T cells as CAR; also called anti-CD123-C11
B14: anti-CD123 scFv-C4 (scFv)
scFv: QSALTQPPSASGTPGQRVTISCSGSSSNIGSNYVNWYQQLPGTAPKLLIYRNNQRPSGVPDRFSGSKSGTSASLAISGLRSEDEADYYCAAWDDSLSGHGVFGTGTELTVLGGGGSGGGGSGGGGSQVQLVQSGPEVKKPGASVKVSCKASGYDFIRYYMNWVRQAPGQGPEWMGAIDPSDGDTTYGQKFQGRVTLTRDTFTSTVYMELSSLRSEDTAVYYCARDWELTNSYGLDVWGQGTTVTVSS
notes: as for B3
B15: anti-CD123 scFv-C16 (scFv)
scFv: QSVVTQPPSASGTPGQRVTISCSGSSSNIEGNTVSWYQQFPGAAPKLLIYSNSYRASGVPDRFSGSKSGTSASLAISELQSEDEADYYCSAWDDSLNGPVFGGGTELTVLGGGGSGGGGSGGGGSQVQLQESGGGLVQPGGSLRLSCAASGFTFSSYSMNWVRQAPGKGLEWVSYISSSSSTIYYADSVKGRFTISRDNAKNSLYLQMNSLRAEDTAVYYCARDIYGDWDYYYYGMDVWGQGTTVTVSS
notes: as for B3
B16: anti-CD123 scFv-C14 (scFv)
scFv: DIRMTQSPSSLSASVGDRVTITCQASQDITNYLNWYHQKPGKAPKLLIYDASNLETGVPSRFSGGGSGTDFTFTISSLQSEDIGTYYCQQYDDLPLTFGGGTKVEIKGGGGSGGGGSGGGGSQVQLQESGPGLVKPSETLSLTCTVSGGSISSSSHYWGWIRQPPGKGLEWIGSIYYSGSTYYNPSLKSRVTISVDTSKNQFSLKLSSVTAADTAVYYCARRVWVWPTYGMDVWGQGTTVTVSS
notes: as for B3

Biological target: T2, CD28 (detection antigen of the BLI assay) (human, UniProt P10747 19-152, limits assumed)
T2 construct: also called the antigen
Assay: BLI (GATOR); antibody loaded at 30 nM, antigen 300-37.5 nM
Text: The affinity kinetics of the humanized antibodies were detected using biolayer interferometry (BLI). The experimental procedures were as follows: [0533] 1. GATOR instrument was run, and the Kinetics experimental mode was selected. [0534] 2. The analysis program was run according to Table 5

Kd | koff | kon | Binder
11.5 nM | 0.00101 s⁻¹ | 87800 M⁻¹ s⁻¹ | B1

Biological target: T1, CD123-Fc recombinant protein
Assay: flow cytometry of T cells electroporated with CAR mRNA, stained with CD123-Fc + PE-anti-hIgG-Fc; Mock 1.68
Procedure: The CD123 CAR mRNAs obtained in Example 35 above were each introduced into T cells by electroporation according to the following procedures: T cells were collected, washed with the Opti-MEM medium, and resuspended at 1×10e⁷/mL with the Opti-MEM medium; 10 μg of RNA and 100 μL of T cells were aliquoted, mixed well, and electroporated under the following parameters (BTX machine): 500 V, 0.7 ms; the cells were then transferred to a pre-warmed medium and cultured at 37° C. The binding of CD123 CART cells to the CD123-Fc recombinant protein was detected by FACS staining. […] Empty vector (Mock) was a control T cell without CAR molecule. A549 tumor cells were electroporated with different amounts of CD123 mRNA. The electroporation procedure was the same as described above, and only the parameters were changed, with the parameters 300 V, 0.5 ms used. CD123 expression in A549 tumor cells was detected by FACS staining of isotype or anti-CD123 antibodies and A549 cells electroporated with different amounts of CD123 mRNA. […] The cytotoxicity of CD123 CART cells against tumor cells was detected in an in vitro cytotoxicity assay. Tumor cells expressing EGFP or EGFP-A549 cells electroporated with different amounts of tumor antigen were seeded at 3000 cells/100 μL/well into a flat-bottom 96-well plate; CART cells were diluted to a proper concentration and seeded to the 100 μL/well tumor cells according to different E/T ratios (e.g., 10:1, 3:1, or 1:1), and the co-culture plate was placed into the IncuCyte S3 machine and scanning parameters were set. After scanning for 3 days, the total green object integrated intensity (GCU×μm²/well) was analyzed to calculate the killing efficiency.

percent of cells in the CD123-Fc positive gate | Binder
53.6% | B2
85.7% | B3
84.7% | B4
97.3% | B5
32.3% | B6
94% | B7
97.5% | B8
81.7% | B9
79.3% | B10
93.3% | B11
87.8% | B12
38% | B13
93.8% | B14
94.2% | B15
85.4% | B16
